Data published in patent US20140093973A1 (BOARD OF REGENTS OF THE UNIVERSITY OF OKLAHOMA, published 2014).
Ends that are not written are not given here.

Legend:
soluble HLA-A*2402 = molecular target: T1, soluble HLA-A*2402 (human); assay: FP screen
T1 construct: Member of the panel of 53 single-specificity sHLA

soluble HLA-B*1512 = molecular target: T2, soluble HLA-B*1512 (human); assay: FP screen
T2 construct: Member of the panel of 53 single-specificity sHLA

soluble HLA-A*0301 = molecular target: T3, soluble HLA-A*0301 (human); assay: FP screen
T3 construct: Member of the panel of 53 single-specificity sHLA

soluble HLA-A*6601 = molecular target: T4, soluble HLA-A*6601 (human); assay: FP screen
T4 construct: Member of the panel of 53 single-specificity sHLA

soluble HLA-B*1801 = molecular target: T5, soluble HLA-B*1801 (human); assay: FP screen
T5 construct: Member of the panel of 53 single-specificity sHLA

[1] = molecular target: T6, soluble HLA-A*6801 (sHLA-A*6801) (human); assay: FP screen
T6 construct: Recombinant soluble class I with endogenous peptides, made as m1

soluble HLA-B*1302 = molecular target: T7, soluble HLA-B*1302 (human); assay: FP screen
T7 construct: Member of the panel of 53 single-specificity sHLA

[2] = molecular target: T8, soluble HLA-B*2705 (sHLA-B*2705) (human); assay: FP screen
T8 construct: Recombinant soluble class I with endogenous peptides, made as m1; negative control

soluble HLA-B*4002 = molecular target: T9, soluble HLA-B*4002 (human); assay: FP screen
T9 construct: Member of the panel of 53 single-specificity sHLA

soluble HLA-B*4402 = molecular target: T10, soluble HLA-B*4402 (human); assay: FP screen
T10 construct: Member of the panel of 53 single-specificity sHLA

[3] = molecular target: soluble HLA-A*0201 (sHLA-A*0201) (human); assay: FP screen
[4] = molecular target: T11, soluble HLA-A*6901 (sHLA-A*6901) (human); assay: FP screen
T11 construct: Recombinant soluble class I with endogenous peptides, made as m1

[5] = molecular target: T12, soluble HLA-A*1102 (sHLA-A*1102) (human, UniProt P04439 25-308; P61769 21-119); assay: FP screen
T12 construct: Recombinant soluble class I with endogenous peptides, made as m1

soluble HLA-B*1501 = molecular target: T13, soluble HLA-B*1501 (human); assay: FP screen
T13 construct: Member of the panel of 53 single-specificity sHLA

soluble HLA-B*4001 = molecular target: T14, soluble HLA-B*4001 (human); assay: FP screen
T14 construct: Member of the panel of 53 single-specificity sHLA

soluble HLA-A*3002 = molecular target: T15, soluble HLA-A*3002 (human); assay: FP screen
T15 construct: Member of the panel of 53 single-specificity sHLA

soluble HLA-B*4501 = molecular target: T16, soluble HLA-B*4501 (human); assay: FP screen
T16 construct: Member of the panel of 53 single-specificity sHLA

soluble HLA-A*2301 = molecular target: T17, soluble HLA-A*2301 (human); assay: FP screen
T17 construct: Member of the panel of 53 single-specificity sHLA

soluble HLA-A*0101 = molecular target: T18, soluble HLA-A*0101 (human); assay: FP screen of 53 sHLA with FITC-peptide
T18 construct: Member of the panel of 53 single-specificity sHLA

soluble HLA-A*2902 = molecular target: T19, soluble HLA-A*2902 (human); assay: FP screen of 53 sHLA with FITC-peptide
T19 construct: Member of the panel of 53 single-specificity sHLA

YLEPAKAKY (also: FITC-labeled, position not given here) [YLEPAKAKY, FITC-labeled A1-like peptide]
binding result (soluble HLA-A*2402): no binding (tested: 100 ug/ml sHLA) | binding result (soluble HLA-B*1512): no binding (tested: 100 ug/ml sHLA) | binding result (soluble HLA-A*0301): no binding (tested: 100 ug/ml sHLA) | binding result (soluble HLA-A*6601): no binding (tested: 100 ug/ml sHLA) | binding result (soluble HLA-B*1801): no binding (tested: 100 ug/ml sHLA) | binding result [1]: no binding (tested: 100 ug/ml sHLA) | binding result (soluble HLA-B*1302): no binding (tested: 100 ug/ml sHLA) | binding result [2]: no binding (tested: 100 ug/ml sHLA) | binding result (soluble HLA-B*4002): no binding (tested: 100 ug/ml sHLA) | binding result (soluble HLA-B*4402): no binding (tested: 100 ug/ml sHLA) | binding result [3]: no binding (tested: 100 ug/ml sHLA) | binding result [4]: no binding (tested: 100 ug/ml sHLA) | binding result [5]: no binding (tested: 100 ug/ml sHLA) | binding result (soluble HLA-B*1501): no binding (tested: 100 ug/ml sHLA) | binding result (soluble HLA-B*4001): no binding (tested: 100 ug/ml sHLA) | binding result (soluble HLA-A*3002): no binding (tested: 100 ug/ml sHLA) | binding result (soluble HLA-B*4501): no binding (tested: 100 ug/ml sHLA) | binding result (soluble HLA-A*2301): no binding (tested: 100 ug/ml sHLA) | binding result (soluble HLA-A*0101): binds | binding result (soluble HLA-A*2902): binds
